Measured values from US20240109954A1 (GENERAL HOSPITAL, published 2024).
Residue numbers refer to the chain shown, from its start. Names and notes keep the numbering of the source.

T1: EBOV GP displayed on vesicular stomatitis virus (VSV) pseudovirions (Ebola virus, UniProt Q05320 33-676)
T1 sequence: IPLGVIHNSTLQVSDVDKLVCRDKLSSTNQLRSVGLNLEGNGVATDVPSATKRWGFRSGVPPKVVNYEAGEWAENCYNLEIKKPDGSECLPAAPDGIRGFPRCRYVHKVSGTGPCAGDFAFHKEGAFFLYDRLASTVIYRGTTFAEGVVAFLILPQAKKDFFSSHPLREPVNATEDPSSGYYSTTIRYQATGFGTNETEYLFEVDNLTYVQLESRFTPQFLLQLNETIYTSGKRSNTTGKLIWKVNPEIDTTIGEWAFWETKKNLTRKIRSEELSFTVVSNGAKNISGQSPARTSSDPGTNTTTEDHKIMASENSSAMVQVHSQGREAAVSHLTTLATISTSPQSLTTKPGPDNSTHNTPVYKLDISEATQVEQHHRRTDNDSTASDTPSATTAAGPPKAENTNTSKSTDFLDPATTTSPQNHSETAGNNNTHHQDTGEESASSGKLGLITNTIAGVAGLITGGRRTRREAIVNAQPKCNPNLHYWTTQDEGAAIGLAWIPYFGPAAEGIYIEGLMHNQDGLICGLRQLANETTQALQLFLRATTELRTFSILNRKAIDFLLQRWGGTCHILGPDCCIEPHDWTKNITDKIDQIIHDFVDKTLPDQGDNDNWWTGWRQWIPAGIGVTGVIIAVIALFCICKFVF

T2: mouse FcγRIIb (mouse, UniProt P08101 30-210)
T2 construct: also called mFcγRIIb; mFcγR2b
T2 sequence: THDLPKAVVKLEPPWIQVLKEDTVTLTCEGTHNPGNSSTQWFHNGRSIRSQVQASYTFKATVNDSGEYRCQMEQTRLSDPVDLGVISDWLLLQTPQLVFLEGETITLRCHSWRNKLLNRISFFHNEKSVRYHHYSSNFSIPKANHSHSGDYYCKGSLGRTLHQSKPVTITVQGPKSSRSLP

T3: mouse FcγRIII (mouse, UniProt P08508 31-215)
T3 construct: also called mFcγRIII; mFcγR3
T3 sequence: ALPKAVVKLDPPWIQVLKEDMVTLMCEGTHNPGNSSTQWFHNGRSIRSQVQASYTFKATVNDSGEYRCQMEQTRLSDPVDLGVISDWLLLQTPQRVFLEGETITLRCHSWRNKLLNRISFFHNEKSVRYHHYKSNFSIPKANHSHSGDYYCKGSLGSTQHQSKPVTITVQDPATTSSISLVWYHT

T4: mouse FcγRI (mouse, UniProt P26151 25-297)
T4 construct: also called mFcγRI
T4 sequence: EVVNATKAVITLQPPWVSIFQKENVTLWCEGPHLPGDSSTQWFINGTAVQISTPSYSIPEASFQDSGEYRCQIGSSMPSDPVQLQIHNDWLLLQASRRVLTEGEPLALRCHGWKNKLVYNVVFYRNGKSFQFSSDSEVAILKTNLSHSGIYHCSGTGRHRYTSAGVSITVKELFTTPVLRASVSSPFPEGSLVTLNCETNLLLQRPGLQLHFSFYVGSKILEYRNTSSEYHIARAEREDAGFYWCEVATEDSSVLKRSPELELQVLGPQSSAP

T5: mouse FcγRIV (mouse, UniProt A0A0B4J1G0 21-203)
T5 construct: also called mFcγRIV
T5 sequence: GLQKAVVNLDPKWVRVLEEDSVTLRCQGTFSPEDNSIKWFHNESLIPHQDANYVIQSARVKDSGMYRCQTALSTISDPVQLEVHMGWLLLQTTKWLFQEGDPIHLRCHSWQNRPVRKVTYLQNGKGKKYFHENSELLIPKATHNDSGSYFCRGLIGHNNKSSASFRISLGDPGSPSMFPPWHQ

T6: human FcγR2A (R131) (human, UniProt P12318 34-217)
T6 construct: also called huFcγR2A
T6 sequence: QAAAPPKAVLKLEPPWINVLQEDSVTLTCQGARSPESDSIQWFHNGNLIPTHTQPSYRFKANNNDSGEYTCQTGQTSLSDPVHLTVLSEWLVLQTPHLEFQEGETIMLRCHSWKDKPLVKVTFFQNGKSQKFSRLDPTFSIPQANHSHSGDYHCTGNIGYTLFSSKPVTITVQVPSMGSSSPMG

T7: human FcγR2B (human, UniProt P31994 43-217)
T7 construct: also called huFcγR2B
T7 sequence: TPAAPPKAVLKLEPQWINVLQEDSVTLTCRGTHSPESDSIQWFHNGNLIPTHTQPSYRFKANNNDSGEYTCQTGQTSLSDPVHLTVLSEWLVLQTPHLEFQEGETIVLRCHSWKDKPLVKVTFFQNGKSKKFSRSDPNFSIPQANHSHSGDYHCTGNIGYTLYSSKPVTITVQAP

B1: mIgG1 VIC16 (antibody, V domains shown)
VH: QVQFQQSGAELAKLGASVKMSCKASGYTFTKYWMHWIKQRPGQGLEWIGYINPSTGYSENNQKFKGKAILTADKSSSTAYMQLSSLTSDDSAVYYCVRGYDSHYYVMDYWGQGTSVTVSS
VL: DIVITQDTASLAVSRGQRATISCRASESVEYYGTTLMQWYQQRPGQPPKLLIYGASNVESGVPARFSGSGSGTDFSLNIHPVEEDDIAMYFCQQSRKVPYTFGGGTKLEIK
B2: VIC16-IgG1 (antibody)
heavy: not shown
light: DIVITQDTASLAVSRGQRATISCRASESVEYYGTTLMQWYQQRPGQPPKLLIYGASNVESGVPARFSGSGSGTDFSLNIHPVEEDDIAMYFCQQSRKVPYTFGGGTKLEIKRTVAAPSVFIFPPSDEQLKSGTASVVCLLNNFYPREAKVQWKVDNALQSGNSQESVTEQDSKDSTYSLSSTLTLSKADYEKHKVYACEVTHQGLSSPVTKSFNRGEC
notes: also called VIC16 human IgG1; wild type IgG1
B3: VIC16-EANA (antibody)
heavy: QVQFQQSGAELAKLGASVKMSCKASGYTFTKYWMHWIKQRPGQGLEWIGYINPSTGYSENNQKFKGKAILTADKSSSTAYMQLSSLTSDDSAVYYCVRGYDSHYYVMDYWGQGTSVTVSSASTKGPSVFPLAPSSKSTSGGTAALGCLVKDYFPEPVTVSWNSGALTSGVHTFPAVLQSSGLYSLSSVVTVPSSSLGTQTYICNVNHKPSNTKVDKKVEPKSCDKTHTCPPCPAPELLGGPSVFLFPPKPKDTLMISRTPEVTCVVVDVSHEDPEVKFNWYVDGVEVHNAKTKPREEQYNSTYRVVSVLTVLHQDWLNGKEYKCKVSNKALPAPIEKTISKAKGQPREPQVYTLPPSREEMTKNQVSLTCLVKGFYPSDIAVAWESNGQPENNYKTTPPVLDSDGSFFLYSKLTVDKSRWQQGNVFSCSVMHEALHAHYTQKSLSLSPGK
light: B2 light
B4: VIC16-SAEAKA-LS (antibody)
heavy: QVQFQQSGAELAKLGASVKMSCKASGYTFTKYWMHWIKQRPGQGLEWIGYINPSTGYSENNQKFKGKAILTADKSSSTAYMQLSSLTSDDSAVYYCVRGYDSHYYVMDYWGQGTSVTVSSASTKGPSVFPLAPSSKSTSGGTAALGCLVKDYFPEPVTVSWNSGALTSGVHTFPAVLQSSGLYSLSSVVTVPSSSLGTQTYICNVNHKPSNTKVDKKVEPKSCDKTHTCPPCPAPELLGGPSVFLFPPKPKDTLMISRTPEVTCVVVDVSHEDPEVKFNWYVDGVEVHNAKTKPREEQYNATYRVVSVLTVLHQDWLNGKEYKCKVSNKALPAPIAATISKAKGQPREPQVYTLPPSREEMTKNQVSLTCLVKGFYPSDIAVEWESNGQPENNYKTTPPVLDSDGSFFLYSKLTVDKSRWQQGNVFSCSVLHEALHSHYTQKSLSLSPGK
light: B2 light
B5: VIC16-SDIESA-LS (antibody)
heavy: B4 heavy with S242D, I335E, A336E, A337K
light: B2 light
B6: VIC16-E333A (antibody)
heavy: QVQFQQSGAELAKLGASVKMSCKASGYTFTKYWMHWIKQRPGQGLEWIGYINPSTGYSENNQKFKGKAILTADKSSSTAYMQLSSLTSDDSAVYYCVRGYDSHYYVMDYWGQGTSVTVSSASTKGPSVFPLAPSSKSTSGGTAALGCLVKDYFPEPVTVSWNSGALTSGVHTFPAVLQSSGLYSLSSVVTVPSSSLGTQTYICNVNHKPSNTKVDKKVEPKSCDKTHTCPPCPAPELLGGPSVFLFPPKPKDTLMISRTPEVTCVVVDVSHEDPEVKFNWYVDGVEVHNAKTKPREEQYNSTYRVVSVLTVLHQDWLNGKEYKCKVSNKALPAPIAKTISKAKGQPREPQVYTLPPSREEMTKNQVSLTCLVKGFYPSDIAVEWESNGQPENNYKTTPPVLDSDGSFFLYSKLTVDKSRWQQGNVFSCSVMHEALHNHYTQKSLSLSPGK
light: B2 light
B7: VIC16-EFTEA (antibody)
heavy: B4 heavy with G239A, S270E, H271F, A301S, S327T, I335E, A336E, A337K, L431M, S437N
light: B2 light
B8: VIC16-SAEAKA (antibody)
heavy: B4 heavy with L431M, S437N
light: B2 light
B9: VIC16-KWES (antibody)
heavy: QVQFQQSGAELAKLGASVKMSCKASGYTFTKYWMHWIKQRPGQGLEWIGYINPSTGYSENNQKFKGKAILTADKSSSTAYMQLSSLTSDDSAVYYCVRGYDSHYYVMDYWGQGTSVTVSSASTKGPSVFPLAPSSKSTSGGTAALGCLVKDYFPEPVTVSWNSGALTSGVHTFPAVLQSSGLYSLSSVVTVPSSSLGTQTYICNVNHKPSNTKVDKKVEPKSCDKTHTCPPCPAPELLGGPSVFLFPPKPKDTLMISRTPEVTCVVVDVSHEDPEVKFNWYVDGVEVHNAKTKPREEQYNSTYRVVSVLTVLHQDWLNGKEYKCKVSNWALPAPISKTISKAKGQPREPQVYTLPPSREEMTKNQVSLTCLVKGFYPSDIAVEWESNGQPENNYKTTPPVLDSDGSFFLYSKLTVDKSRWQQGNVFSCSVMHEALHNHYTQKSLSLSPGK
light: B2 light

What was measured:
[1] = target: T1, EBOV GP displayed on vesicular …; test: cell-based or functional assay
[2] = target: T1, EBOV GP displayed on vesicular …; test: cell-based or functional assay; remark: listed apart in the source
mouse FcγRIIb [3] = target: T2, mouse FcγRIIb; test: BLI, mAb on anti-human Fab-CH1 sensor, FcγR in solution
mouse FcγRIII = target: T3, mouse FcγRIII; test: as above
mouse FcγRI = target: T4, mouse FcγRI; test: as above
mouse FcγRIV [4] = target: T5, mouse FcγRIV; test: as above
human FcγR3A (F158) = target: T8, human FcγR3A (F158) (human, UniProt P08637 17-208); test: SPR, mAb printed on chip, FcγR injected
T8 construct: also called huFcγR3A

human FcγR2A (R131) [5] = target: T6, human FcγR2A (R131); test: SPR, mAb printed on chip, FcγR injected
human FcγR2B = target: T7, human FcγR2B; test: SPR, mAb printed on chip, FcγR injected
human FcγR3B [6] = target: T9, human FcγR3B (human, UniProt O75015 17-200); test: SPR, mAb printed on chip, FcγR injected
T9 construct: also called huFcγR3B

mouse FcγRIIb [7] = target: T2, mouse FcγRIIb; test: SPR (IBIS MX96): mAb printed on the chip, recombinant FcγR injected at 10 to 0.005 µM; axis 'KD, M^-1', that is the reciprocal of KD
human FcγR3B [8] = target: T9, human FcγR3B; test: as above
mouse FcγRIV [9] = target: T5, mouse FcγRIV; test: as above
mouse FcγRIIb [10] = target: T2, mouse FcγRIIb; test: BLI, mAb on anti-human Fab-CH1 sensor, FcγR in solution; remark: listed apart in the source
human FcγR2A (R131) [11] = target: T6, human FcγR2A (R131); test: SPR, mAb printed on chip, FcγR injected; remark: listed apart in the source
human FcγR3B [12] = target: T9, human FcγR3B; test: SPR, mAb printed on chip, FcγR injected; ND = not detected

T8 sequence (P08637 17-208): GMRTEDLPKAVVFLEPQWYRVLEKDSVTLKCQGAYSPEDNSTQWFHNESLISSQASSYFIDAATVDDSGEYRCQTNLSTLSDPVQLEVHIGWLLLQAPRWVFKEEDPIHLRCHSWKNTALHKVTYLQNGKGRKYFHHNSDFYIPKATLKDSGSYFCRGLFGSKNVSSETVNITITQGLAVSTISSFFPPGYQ
T9 sequence (O75015 17-200): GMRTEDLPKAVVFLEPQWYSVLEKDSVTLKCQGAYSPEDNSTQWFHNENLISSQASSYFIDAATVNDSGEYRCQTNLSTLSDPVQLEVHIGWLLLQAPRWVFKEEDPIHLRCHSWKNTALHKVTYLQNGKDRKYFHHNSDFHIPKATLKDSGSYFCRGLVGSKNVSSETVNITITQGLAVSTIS

Binder | IC50, neutralization of VSV pseudotyped to display EBOV GP [2] | Kd (mouse FcγRIIb [3]) | fold-change relative to IgG1 (mouse FcγRIIb [3]) | Kd (mouse FcγRIII) | fold-change relative to IgG1 (mouse FcγRIII) | Kd (mouse FcγRI) | fold-change relative to IgG1 (mouse FcγRI) | Kd (mouse FcγRIV [4]) | fold-change relative to IgG1 (mouse FcγRIV [4]) | Kd (human FcγR3A (F158)) | fold-change relative to IgG1 (human FcγR3A (F158)) | Kd (human FcγR2A (R131) [5]) | fold-change relative to IgG1 (human FcγR2A (R131) [5]) | Kd (human FcγR2B) | fold-change relative to IgG1 (human FcγR2B) | binding result (mouse FcγRIIb [7]) | binding result (mouse FcγRIV [9]) | further results
B1 | 0.34 µg/mL |  |  |  |  |  |  |  |  |  |  |  |  |  |  |  |  | IC50 (read off the curve) [Cont.] [1]: ~0.3 µg/mL
B2 |  | 14900 nM | 1 fold | 2830 nM | 1 fold | 80 nM | 1 fold | 240 nM | 1 fold | 6100 nM | 1 fold | 30000 nM | 1 fold | 23000 nM | 1 fold |  |  | Kd (human FcγR3B [6]): 25000 nM; fold-change relative to IgG1 (human FcγR3B [6]): 1 fold
B3 |  |  |  |  |  |  |  |  |  |  |  |  |  |  |  | binds |  | 
B4 |  |  |  |  |  |  |  |  |  |  |  |  |  |  |  | binds | binds | binding result (human FcγR3B [8]): binds
B5 |  |  |  |  |  |  |  |  |  |  |  |  |  |  |  |  | binds | binding result (human FcγR3B [8]): binds
B6 |  |  |  |  |  |  |  |  |  |  |  |  |  |  |  | binds |  | 
B7 | < 1 µg/mL | 490 nM | 30 fold | 1100 nM | 9 fold | 60 nM | 1.3 fold | 120 nM | 2 fold | 6100 nM | 1 fold | 252 nM | 119 fold | 1200 nM | 19 fold |  |  | fold increase in binding (mouse FcγRIIb [10]): 2 fold; fold higher KD compared to IgG1 (human FcγR2A (R131) [11]): 120 fold; Kd (human FcγR3B [6]): 475000 nM; fold-change relative to IgG1 (human FcγR3B [6]): 0.05 fold
B8 |  |  |  |  |  |  |  |  |  |  |  |  |  |  |  | binds | binds | 
B9 | < 1 µg/mL | 46000 nM | 0.3 fold | 20 nM | 0.94 fold | 70 nM | 1.1 fold | 160 nM | 1.5 fold | 1600 nM | 3.8 fold | 8600 nM | 3.4 fold | 224000 nM | 0.12 fold |  |  | binding result (human FcγR3B [12]): no binding (tested: FcγR 10 µM to 0.005 µM)
